This note sets out measurements from paper PMC5491523 (2017).

The chains are these.
B1: CIB2-V5 (calcium and integrin-binding protein 2, V5 tagged, wild type) [human] / TMC1-EGFP (EGFP tagged human full length TMC1) [human] (parent complex)
chain 1: MGNKQTIFTEEQLDNYQDCTFFNKKDILKLHSRFYELAPNLVPMDYRKSPIVHVPMSLIIQMPELRENPFKERIVAAFSEDGEGNLTFNDFVDMFSVLCESAPRELKANYAFKIYDFNTDNFICKEDLELTLARLTKSELDEEEVVLVCDKVIEEADLDGDGKLGFADFEDMIAKAPDFLSTFHIRI
chain 2: MSPKKVQIKVEEKEDETEESSSEEEEEVEDKLPRRESLRPKRKRTRDVINEDDPEPEPEDEETRKAREKERRRRLKRGAEEEEIDEEELERLKAELDEKRQIIATVKCKPWKMEKKIEVLKEAKKFVSENEGALGKGKGKRWFAFKMMMAKKWAKFLRDFENFKAACVPWENKIKAIESQFGSSVASYFLFLRWMYGVNMVLFILTFSLIMLPEYLWGLPYGSLPRKTVPRAEEASAANFGVLYDFNGLAQYSVLFYGYYDNKRTIGWMNFRLPLSYFLVGIMCIGYSFLVVLKAMTKNIGDDGGGDDNTFNFSWKVFTSWDYLIGNPETADNKFNSITMNFKEAITEEKAAQVEENVHLIRFLRFLANFFVFLTLGGSGYLIFWAVKRSQEFAQQDPDTLGWWEKNEMNMVMSLLGMFCPTLFDLFAELEDYHPLIALKWLLGRIFALLLGNLYVFILALMDEINNKIEEEKLVKANITLWEANMIKAYNASFSENSTGPPFFVHPADVPRGPCWETMVGQEFVRLTVSDVLTTYVTILIGDFLRACFVRFCNYCWCWDLEYGYPSYTEFDISGNVLALIFNQGMIWMGSFFAPSLPGINILRLHTSMYFQCWAVMCCNVPEARVFKASRSNNFYLGMLLLILFLSTMPVLYMIVSLPPSFDCGPFSGKNRMFEVIGETLEHDFPSWMAKILRQLSNPGLVIAVILVMVLAIYYLNATAKGQKAANLDLKKKMKMQALENKMRNKKMAAARAAAAAGRQ

In this assay the parent is B1. Briefly: FRET; cells co-expressing EGFP tagged human TMC1 (donor) and V5 tagged human CIB2; parent: 22; read off a plot.
As to chain 1 E64D, the response was roughly 6.5%.

chain 1 R66W: the response was roughly 19%.

As for chain 1 R186W, the response is roughly 19%.

On to chain 1 C99W, for which the response is roughly 5%.

For chain 1 F91S, the response was roughly 3%.

chain 1 I123T: the response is roughly 18%.
